From publication PMC6131205, “Controlling the regioselectivity and stereospecificity of FAD-dependent polyamine oxidases with the use of amine-attached guide molecules as conformational modulators” (Bioscience Reports, 2018)
Several values for one entry are separate records, joined by “and”; a condition that tells them apart may be missing. Equal entries are not always repeated.

Key:
Assay in all cases: purified protein, by the assay type;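 further: recombinant polyamine oxidases incubated with substrate, product amines (putrescine, 1,3-diaminopropane or butane-1,3-diamine) quantified by HPLC after post-column o-phthalaldehyde derivatization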
[1] = substrate: CC(=O)N[C@H](C)CCNCCCCN; conditions: other: Supplementary Table 1, pH 9.0, 100 mM Glycine-NaOH, 25°C, Put formation
Procedure: (§1) HPLC with post-column o-phthalaldehyde-derivatization was used to determine the concentrations of the reaction products Put and 1,3-diaminopropane (DAP) or butane-1,3-diamine respectively as described in [30]. Fms1 activity was determined essentially as described for human recombinant APAO, but reactions were carried out in 100 mM Glycine-NaOH buffer at pH 9.0 in a water bath at +25°C [29, 30].
(§2) The reactions were carried out in 1 triplicate at pH 9.0 in 100 mM Glycine-NaOH at +25°C.
(§3) values for N -Ac-MeSpd enantiomers were determined by using substrate concentrations of 25, 50,
(§4) for Rac-MeSpd 30 min, (R)-MeSpd 20 min and (S)-MeSpd 40 minutes.
(§5) The reactions were carried out in triplicate at pH 9.0 in 100 mM Glycine-NaOH at +25°C.
(§6) values for MeSpd enantiomers were determined by using substrate concentrations of 100, 300, 600,
(§7) 1000, 2000 and 4000 M. Recombinant Fms1 was 3.8 g/reaction and the incubation time 60
(§8) incubated for 30 min (half of the reaction time of an ordinary sample). E1 cleavage was monitored
(§9) by HPLC by measuring Put formation and E2 cleavage by determining butane-1,3-diamine content.

[2] = substrate: CC(=O)NCCCNCCCCN; conditions: other: substrate alone, no aldehyde, pH 9.0, 25°C
Procedure: as §1, §2, §3, §4, §5, §6, §7, §8, §9

[3] = substrate: NCCCCNCCCN; conditions: other: substrate alone, no aldehyde, pH 9.0, 25°C
Procedure: as §1, §2, §3, §4, §5, §6, §7, §8, §9

[4] = substrate: CC(=O)NC(C)CCNCCCCN; conditions: other: Supplementary Table 1, pH 9.0, 100 mM Glycine-NaOH, 25°C, Put formation
Procedure: as §1, §2, §3, §4, §5, §6, §7, §8, §9

[5] = substrate: CC(=O)N[C@@H](C)CCNCCCCN; conditions: other: Supplementary Table 1, pH 9.0, 100 mM Glycine-NaOH, 25°C, Put formation
Procedure: as §1, §2, §3, §4, §5, §6, §7, §8, §9

[6] = substrate: CC(=O)NCCCCNCCCN; conditions: other: substrate alone, no aldehyde, pH 9.0, 25°C
Procedure: as §1, §2, §3, §4, §5, §6, §7, §8, §9

[7] = substrate: CC(N)CCNCCCCN; conditions: other: Supplementary Table 2, pH 9.0, 25°C
Procedure: as §1, §2, §3, §4, §5, §6, §7, §8, §9

B1: Fms1 (Saccharomyces cerevisiae S288C) (protein)
chain: MNTVSPAKKKVIIIGAGIAGLKAASTLHQNGIQDCLVLEARDRVGGRLQTVTGYQGRKYDIGASWHHDTLTNPLFLEEAQLSLNDGRTRFVFDDDNFIYIDEERGRVDHDKELLLEIVDNEMSKFAELEFHQHLGVSDCSFFQLVMKYLLQRRQFLTNDQIRYLPQLCRYLELWHGLDWKLLSAKDTYFGHQGRNAFALNYDSVVQRIAQSFPQNWLKLSCEVKSITREPSKNVTVNCEDGTVYNADYVIITVPQSVLNLSVQPEKNLRGRIEFQPPLKPVIQDAFDKIHFGALGKVIFEFEECCWSNESSKIVTLANSTNEFVEIVRNAENLDELDSMLEREDSQKHTSVTCWSQPLFFVNLSKSTGVASFMMLMQAPLTNHIESIREDKERLFSFFQPVLNKIMKCLDSEDVIDGMRPIENIANANKPVLRNIIVSNWTRDPYSRGAYSACFPGDDPVDMVVAMSNGQDSRIRFAGEHTIMDGAGCAYGAWESGRREATRISDLLK
Km [1]: 155 ± 29 µM | Km [2]: 42 ± 8 µM | kcat [2]: 65 ± 2 s⁻¹ | kcat/Km [2]: (1600 ± 300) × 10^3 M^−1s^−1 | Km [3]: 534 ± 36 µM and 643 ± 52 µM | Km [4]: 140 ± 23 µM | Km [5]: 109 ± 18 µM | Km [6]: 122 ± 18 µM | kcat [6]: 1.4 ± 0.1 s⁻¹ | kcat/Km [6]: (12 ± 1.8) × 10^3 M^−1s^−1 | Km ([7]; Put formation): 502 µM and 555 µM | kcat ([7]; Put formation): 0.014 ± 0 s⁻¹ and 0.011 ± 0 s⁻¹ | kcat/Km ([7]; Put formation): 28 M⁻¹ s⁻¹ and 20 M⁻¹ s⁻¹ | Km ([7]; butane-1,3-diamine formation): 467 µM and 606 µM | kcat ([7]; butane-1,3-diamine formation): 0.006 ± 0 s⁻¹ and 0.013 ± 0 s⁻¹ | kcat/Km ([7]; butane-1,3-diamine formation): 13 M⁻¹ s⁻¹ and 22 M⁻¹ s⁻¹
